Measured values: article PMC12120020

Molecular target: XRCC4 (X-ray repair cross-complementing protein 4) (UniProt Q13426)
Assay: co-IP with anti-Flag M2 beads
Conditions: reference: Flag-AATF wild type, IR; sites S189

With “AATF (apoptosis antagonizing transcription factor) (from UniProt Q9NY61) Flag-AATF S189A, IR” the “binding against the reference” value was “stronger”.
